Experiment in all cases: ELISA; FXIII proteins or collagen type III coated on wells at 10 µg/mL (overnight, 4°C), blocked with 0.5% BSA; GPVI-Fc2 added at varied concentrations; bound GPVI detected by 1G5/IRDye 800CW anti-mouse antibody; KD from binding curves (Figure 1B)
The target in one test is collagen type III (UniProt P02461).
The target in test [1] is FXIII A-subunit (activated) (rh-FXIIIAa), thrombin-activated form of rh-FXIIIA2 (human) (UniProt P00488).
Test [2] addresses Plasma FXIII (FXIIIA2B2), tetrameric, not activated (human) (UniProt P00488).
The target in test [3] is FXIII A-subunit (rh-FXIIIA2), recombinant, not fully activated form (human) (UniProt P00488).

Data on one substance can be found in paper PMC9035508.

The term Kd denotes the free concentration of one partner at which half of the binding sites on the other are occupied at equilibrium, for simple one-to-one binding.

Chain of UniProt P02461 (P02461 24-1221): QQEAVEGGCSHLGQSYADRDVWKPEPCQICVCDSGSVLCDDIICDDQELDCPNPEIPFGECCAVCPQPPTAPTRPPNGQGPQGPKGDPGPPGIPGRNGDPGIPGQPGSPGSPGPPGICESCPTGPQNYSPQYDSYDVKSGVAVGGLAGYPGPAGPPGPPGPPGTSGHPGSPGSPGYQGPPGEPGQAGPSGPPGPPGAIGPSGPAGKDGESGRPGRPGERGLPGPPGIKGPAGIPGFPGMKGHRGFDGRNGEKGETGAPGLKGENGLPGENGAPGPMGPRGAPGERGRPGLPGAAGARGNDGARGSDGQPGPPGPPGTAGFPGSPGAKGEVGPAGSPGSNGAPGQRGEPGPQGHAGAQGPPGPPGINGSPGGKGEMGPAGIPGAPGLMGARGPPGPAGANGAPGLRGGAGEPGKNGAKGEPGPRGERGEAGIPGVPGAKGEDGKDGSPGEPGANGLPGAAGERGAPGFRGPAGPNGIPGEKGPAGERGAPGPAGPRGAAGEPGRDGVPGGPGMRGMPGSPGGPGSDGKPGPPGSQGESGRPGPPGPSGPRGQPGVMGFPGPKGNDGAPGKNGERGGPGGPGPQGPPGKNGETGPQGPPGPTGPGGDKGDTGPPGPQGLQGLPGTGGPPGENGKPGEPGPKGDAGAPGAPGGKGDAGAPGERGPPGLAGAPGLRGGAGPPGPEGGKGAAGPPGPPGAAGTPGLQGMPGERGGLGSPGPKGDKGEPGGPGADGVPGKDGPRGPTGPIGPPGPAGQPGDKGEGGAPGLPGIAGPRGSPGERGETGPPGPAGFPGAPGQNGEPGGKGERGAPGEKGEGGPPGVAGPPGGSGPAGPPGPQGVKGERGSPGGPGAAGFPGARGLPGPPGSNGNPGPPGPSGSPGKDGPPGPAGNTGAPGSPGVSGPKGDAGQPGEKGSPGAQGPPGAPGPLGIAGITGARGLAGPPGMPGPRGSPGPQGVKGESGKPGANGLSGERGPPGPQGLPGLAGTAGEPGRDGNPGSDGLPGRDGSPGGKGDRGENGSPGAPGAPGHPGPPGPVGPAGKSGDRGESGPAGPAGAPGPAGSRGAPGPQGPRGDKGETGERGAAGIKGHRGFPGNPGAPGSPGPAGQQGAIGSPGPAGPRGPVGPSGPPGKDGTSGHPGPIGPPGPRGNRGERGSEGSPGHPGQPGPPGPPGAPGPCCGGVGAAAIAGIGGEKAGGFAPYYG

As for “GPVI-Fc2 (recombinant human GPVI extracellular domain, dimer) (from UniProt Q9HCN6 21-267) (Fc fusion)”, the Kd with collagen type III worked out at 183 nM; in test [1], 140 nM; in test [2], 216 nM; in test [3], 366 nM.
